Assay results: patent US20030198990A1 (UNIVERSITY OF ROCHESTER, published 2003)

B1: Rb fragment (aa 371-928) ligated to the DBD of GAL4 (other)
chain: MKLLSSIEQACDICRLKKLKCSKEKPKCAKCLKNNWECRYSPKTKRSPLTRAHLTEVESRLERLEQLFLLIFPREDLDMILKMDSLQDIKALLTGLFVQDNVNKDAVTDRLASVETDMPLTLRQHRISATSSSEESSNKGQRQLTVSPHTPVRTVMNTIQQLMMILNSASDQPSENLISYFNNCTVNPKESILKRVKDIGYIFKEKFAKAVGQGCVEIGSQRYKLGVRLYYRVMESMLKSEEERLSIQNFSKLLNDNIFHMSLLACALEVVMATYSRSTSQNLDSGTDLSFPWILNVLNLKAFDFYKVIESFIKAEGNLTREMIKHLERCEHRIMESLAWLSDSPLFDLIKQSKDREGPTDHLESACPLNLPLQNNHTAADMYLSPVRSPKKKGSTTRVNSTANAETQATSAFQTQKPLKSTSLSLFYKKVYRLAYLRLNTLCERLLSEHPELEHIIWTLFQHTLQNEYELMRDRHLDQIMMCSMYGICKVKNIDLKFKIIVTAYKDLPHAVQETFKRVLIKEEEYDSIIVFYNSVFMQRLKTNILQYASTRPPTLSPIPHIPRSPYKFPSSPLRIPGGNIYISPLKSPYKISEGLPTPTKMTPRSRILVSIGESFGTSEKFQKINQMVCNSDRVLKRSAEGSNPPKPLKKLRFDIEGSDEADGSKHLPGESKFQQKLAEMTSTRTRMQKQKMNDSMDTSNKEEK

Assays:
[1] = molecular target: T1, near full-length AR (nAR, aa 36-918) ligated to transcriptional activator VP16 (human, UniProt P10275 36-918); assay: cell-based or functional assay
T1 sequence: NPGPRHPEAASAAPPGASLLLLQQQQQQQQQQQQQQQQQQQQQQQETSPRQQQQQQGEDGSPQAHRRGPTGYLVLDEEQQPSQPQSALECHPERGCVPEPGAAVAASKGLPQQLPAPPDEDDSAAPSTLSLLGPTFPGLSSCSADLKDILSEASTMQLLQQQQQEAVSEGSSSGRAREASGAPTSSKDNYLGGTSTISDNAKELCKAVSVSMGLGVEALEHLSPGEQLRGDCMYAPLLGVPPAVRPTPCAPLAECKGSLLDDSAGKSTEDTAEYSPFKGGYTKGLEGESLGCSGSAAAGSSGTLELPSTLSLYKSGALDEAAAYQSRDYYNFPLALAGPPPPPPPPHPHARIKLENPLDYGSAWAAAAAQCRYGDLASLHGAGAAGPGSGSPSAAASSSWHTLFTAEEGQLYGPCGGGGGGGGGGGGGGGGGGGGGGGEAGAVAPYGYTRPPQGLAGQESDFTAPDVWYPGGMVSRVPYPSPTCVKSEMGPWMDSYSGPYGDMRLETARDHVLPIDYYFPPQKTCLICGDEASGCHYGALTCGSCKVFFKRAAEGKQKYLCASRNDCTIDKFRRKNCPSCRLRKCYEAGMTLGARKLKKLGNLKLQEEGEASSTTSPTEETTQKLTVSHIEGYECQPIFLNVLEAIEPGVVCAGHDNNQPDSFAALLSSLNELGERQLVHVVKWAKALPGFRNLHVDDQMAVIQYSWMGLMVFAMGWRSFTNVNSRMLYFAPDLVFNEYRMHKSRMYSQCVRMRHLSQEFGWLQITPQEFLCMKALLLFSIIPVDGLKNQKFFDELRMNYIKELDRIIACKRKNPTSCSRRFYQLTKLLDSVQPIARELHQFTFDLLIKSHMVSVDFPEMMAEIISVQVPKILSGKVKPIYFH

[2] = molecular target: T1, near full-length AR (nAR, aa 36-918) …; assay: mammalian two-hybrid, CAT reporter, DU145 cells
[3] = molecular target: B1; assay: mammalian two-hybrid, CAT reporter, DU145 cells
[4] = molecular target: T2, human androgen receptor (AR), full length (human, UniProt P10275 1-920); assay: assay not given
T2 construct: mature; Full-length AR as used in the co-immunoprecipitations; The ARA54 co-IP used anti-His.tag antibodies; also called wtAR; wild type AR
T2 sequence (looked up): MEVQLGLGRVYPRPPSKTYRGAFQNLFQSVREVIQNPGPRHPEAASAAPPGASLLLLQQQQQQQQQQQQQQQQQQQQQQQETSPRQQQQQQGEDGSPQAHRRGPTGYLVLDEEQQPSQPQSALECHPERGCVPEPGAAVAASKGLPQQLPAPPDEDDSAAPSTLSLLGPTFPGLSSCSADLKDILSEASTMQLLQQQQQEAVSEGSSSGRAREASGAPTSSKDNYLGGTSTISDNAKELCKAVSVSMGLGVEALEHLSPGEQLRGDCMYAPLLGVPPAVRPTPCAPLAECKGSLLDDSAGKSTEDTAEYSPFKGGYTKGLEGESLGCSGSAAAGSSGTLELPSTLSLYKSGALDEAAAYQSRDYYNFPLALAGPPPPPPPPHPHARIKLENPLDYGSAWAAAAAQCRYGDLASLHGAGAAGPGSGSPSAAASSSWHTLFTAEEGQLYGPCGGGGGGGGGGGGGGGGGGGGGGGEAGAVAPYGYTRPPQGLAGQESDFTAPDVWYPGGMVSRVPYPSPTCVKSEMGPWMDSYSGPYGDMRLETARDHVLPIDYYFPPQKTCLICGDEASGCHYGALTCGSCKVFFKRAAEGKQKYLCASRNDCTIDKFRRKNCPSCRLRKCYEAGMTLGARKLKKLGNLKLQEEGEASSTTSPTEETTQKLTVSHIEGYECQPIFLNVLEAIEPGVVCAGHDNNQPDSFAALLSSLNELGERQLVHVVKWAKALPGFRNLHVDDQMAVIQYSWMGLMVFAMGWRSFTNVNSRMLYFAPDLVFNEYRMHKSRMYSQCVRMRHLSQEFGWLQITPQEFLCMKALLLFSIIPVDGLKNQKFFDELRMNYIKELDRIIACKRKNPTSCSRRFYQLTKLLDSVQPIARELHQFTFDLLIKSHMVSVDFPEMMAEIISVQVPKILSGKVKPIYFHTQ

[5] = molecular target: T3, GAL0 empty vector (GAL4 DBD alone) (UniProt P04386 1-147); assay: mammalian two-hybrid, CAT reporter, DU145 cells
T3 construct: range 1-147; Control of the mammalian two-hybrid assay; also called pGAL0

[6] = molecular target: T2, human androgen receptor (AR), full …; assay: cell-based or functional assay
[7] = molecular target: T4, GAL0AR: hormone binding domain of wtAR fused to the GAL4 DBD (human, UniProt P04386 1-147; P10275 625-920); assay: mammalian two-hybrid, CAT reporter, DU145 cells
T4 construct: range 1-147;domain: hinge and LBD; also called pGAL0-AR (wild-type); GAL4DBD fused to E region of human AR

Q: With B1 as the binder, how does the “CAT activity, mammalian two-hybrid system in DU145 cells” value [1] read?
A: The value was 3 fold.

B2: PR-LBD (receptor, UniProt P06401 679-933, looked up)
chain: QDIQLIPPLINLLMSIEPDVIYAGHDNTKPDTSSSLLTSLNQLGERQLLSVVKWSKSLPGFRNLHIDDQITLIQYSWMSLMVFGLGWRSYKHVSGQMLYFAPDLILNEQRMKESSFYSLCLTMWQIPQEFVKLQVSQEEFLCMKVLLLLNTIPLEGLRSQTQFEEMRSSYIRELIKAIGLRQKGVVSSSQRFYQLTKLLDNLHDLVKQLHLYCLNTFIQSRALSVEFPEMMSEVIAAQLPKILAGMVKPLLFHKK
notes: domain: LBD; Control in the mammalian two-hybrid assay; the construct is not described
Q: Does B2 bind [2]?
A: Result: no binding

B3: AR-LBD (aa 590-918) ligated to transcriptional activator VP16 (receptor)
chain: GKQKYLCASRNDCTIDKFRRKNCPSCRLRKCYEAGMTLGARKLKKLGNLKLQEEGEASSTTSPTEETTQKLTVSHIEGYECQPIFLNVLEAIEPGVVCAGHDNNQPDSFAALLSSLNELGERQLVHVVKWAKALPGFRNLHVDDQMAVIQYSWMGLMVFAMGWRSFTNVNSRMLYFAPDLVFNEYRMHKSRMYSQCVRMRHLSQEFGWLQITPQEFLCMKALLLFSIIPVDGLKNQKFFDELRMNYIKELDRIIACKRKNPTSCSRRFYQLTKLLDSVQPIARELHQFTFDLLIKSHMVSVDFPEMMAEIISVQVPKILSGKVKPIYFH
notes: range 590-918; Mammalian two-hybrid construct, DU145 cells; also called pCMX-VP16-AR
Q: Does B3 bind [3]?
A: Result: no binding

B4: C-terminal domain of ARA55 (amino acids 251-444) (other)
chain: EKDGAPFCPECYFERFSPRCGFCNQPIRHKMVTALGTHWHPEHFCCVSCGEPFGDEGFHEREGRPYCRRDFLQLFAPRCQGCQGPILDNYISALSLLWHPDCFVCRECFAPFSGGSFFEHEGRPLCENHFHARRGSLCPTCGLPVTGRCVSALGRRFHPDHFACTFCLRPLTKGSFQERAGKPYCQPCFLKLFG
notes: also called ARA55251-444; C-terminus of ARA55
Q: Does B4 bind [4]?
A: Result: binds

B5: VP16-ARA55: full-length ARA55 fused to the activation domain of VP16 (other)
chain: MPRSGAPKERPAEPLTPPPSYGHQPTGQSGESSGASGDKDHLYSTVCKPRSPKPAAPAAPPFSSSSGVLGTGLCELDRLLQELNATQFNITDEIMSQFPSSKVASGEQKEDQSEDKKRPSLPSSPSPGLPKASATSATLELDRLMASLPDFRVQNHLPASGPTQPPVVSSTNEGSPSPPEPTAKGSLDTMLGLLQSDLSRRGVPTQAKGLCGSCNKPIAGQVVTALGRAWHPEHFVCGGCSTALGGSSFFEKDGAPFCPECYFERFSPRCGFCNQPIRHKMVTALGTHWHPEHFCCVSCGEPFGDEGFHEREGRPYCRRDFLQLFAPRCQGCQGPILDNYISALSLLWHPDCFVCRECFAPFSGGSFFEHEGRPLCENHFHARRGSLCPTCGLPVTGRCVSALGRRFHPDHFACTFCLRPLTKGSFQERAGKPYCQPCFLKLFG
notes: Mammalian two-hybrid construct, expressed in DU145 cells
Q: Does B5 bind [5]?
A: Result: no binding

B6: ARA70 (other, UniProt Q13772 1-614, looked up)
chain: MNTFQDQSGSSSNREPLLRCSDARRDLELAIGGVLRAEQQIKDNLREVKAQIHSCISRHLECLRSREVWLYEQVDLIYQLKEETLQQQAQQLYSLLGQFNCLTHQLECTQNKDLANQVSVCLERLGSLTLKPEDSTVLLFEADTITLRQTITTFGSLKTIQIPEHLMAHASSANIGPFLEKRGCISMPEQKSASGIVAVPFSEWLLGSKPASGYQAPYIPSTDPQDWLTQKQTLENSQTSSRACNFFNNVGGNLKGLENWLLKSEKSSYQKCNSHSTTSSFSIEMEKVGDQELPDQDEMDLSDWLVTPQESHKLRKPENGSRETSEKFKLLFQSYNVNDWLVKTDSCTNCQGNQPKGVEIENLGNLKCLNDHLEAKKPLSTPSMVTEDWLVQNHQDPCKVEEVCRANEPCTSFAECVCDENCEKEALYKWLLKKEGKDKNGMPVEPKPEPEKHKDSLNMWLCPRKEVIEQTKAPKAMTPSRIADSFQVIKNSPLSEWLIRPPYKEGSPKEVPGTEDRAGKQKFKSPMNTSWCSFNTADWVLPGKKMGNLSQLSSGEDKWLLRKKAQEVLLNSPLQEEHNFPPDHYGLPAVCDLFACMQLKVDKEKWLYRTPLQM
notes: also called AR associated protein ARA70
Q: What does the source list for B6?
A: induced CAT activity in mammalian two-hybrid assay [6]: 12 fold; binding result [3]: no binding

B7: VP16 vector (VP16 activation domain alone) (other)
chain: APPTDVSLGDELHLDGEDVAMAHADALDDFDLDMLGDGDSPGPGFTPHDSAPYGALDMADFEFEQMFTDALGIDEYGG
notes: Control of the mammalian two-hybrid assay; also called pCMX-VP16
Q: Does B7 bind [7]?
A: Result: no binding
